# No end group written: not given here.
# T1: PACAP-R3 (human, UniProt P41587 24-438)
# T1 sequence (looked up): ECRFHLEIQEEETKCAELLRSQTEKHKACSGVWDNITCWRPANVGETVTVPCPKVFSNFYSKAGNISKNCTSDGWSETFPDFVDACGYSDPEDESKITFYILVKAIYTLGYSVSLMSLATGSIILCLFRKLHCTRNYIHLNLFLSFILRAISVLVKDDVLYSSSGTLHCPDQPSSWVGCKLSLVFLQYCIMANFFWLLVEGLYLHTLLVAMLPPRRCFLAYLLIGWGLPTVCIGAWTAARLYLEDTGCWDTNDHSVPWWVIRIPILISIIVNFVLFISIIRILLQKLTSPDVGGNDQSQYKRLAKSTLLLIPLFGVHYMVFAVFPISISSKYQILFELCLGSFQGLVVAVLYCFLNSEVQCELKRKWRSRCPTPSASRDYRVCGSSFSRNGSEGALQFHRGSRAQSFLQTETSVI
# Biological target: T1, PACAP-R3
# Test: cell-based or functional assay
R3 EC50,R3 Selectivity,Binder
200 nM,5 ratio,HSDAVFTDNYTRLRKQMAPKKYLNSIKNKR [R3P107]
10 nM,100 ratio,HSDAVFTDNYTRLRKQMARKKYLNSIKNKR [R3P109]
,0.3 ratio,HSDAVFTENYTKLRKQLAAKKYLNDLLNGGT [R3P10]
,3 ratio,HSDAVFTDNYTKLRKQLAAKKYLNDILNGGT [R3P11]
0.3 nM,100 ratio,HSDAVFTDNYTRLRKQMAAKKYLNSIKNFR [R3P137]
1 nM,40 ratio,HSDAVFTDNYTRLRKQMAAKKYLNSIVNKR [R3P130]
,33 ratio,HSDAVFTDNYTRLRKQLAAKKYLNDIKK-NH2 [R3P13]
0.4 nM,100 ratio,HSDAVFTDNYTRLRKQMAAKKYLNSIKNCR [R3P134]
0.2 nM,,HSDAVFTDNYTRLRKQMAAKKYLNSIINKR [R3P122]
,23 ratio,HSDAVFTDNYTRLRKQVAVKKYLQSIKNKRY [R3P82]
,60 ratio,HSDAVFTDNYTRLRKQVAAKKYLQSILKKRY [R3P83]
,3 ratio,HSDAVFTDNYTRLRKQVAVKKYLQSILKKRY [R3P87]
1 nM,400 ratio,HSDAVFTDNYTRLRKQMAHKKYLNSIKNKR [R3P101]
2 nM,30 ratio,HSDAVFTDNYTRLRKQMAAKKYLNSIPNKR [R3P125]
,40 ratio,HSDAVFTDNYTRLRKQVAAKKYLQSILKKR [R3P84]
0.3 nM,50 ratio,HSDAVFTDNYTRLRKQMAAKKYLNSIKNIR [R3P140]
0.14 nM,40 ratio,HSDAVFTDNYTRLRKQVAAKKYLQSILNK [R3P93]
60 nM,5 ratio,HSDAVFTDNYTRLRKQMAIKKYLNSIKNKR [R3P102]
0.2 nM,,HSDAVFTDNYTRLRKQMAAKKYLNSIYNKR [R3P132]
3 nM,,HSDAVFTDNYTRLRKQMATKKYLNSIKNKR [R3P111]
0.4 nM,50 ratio,HSDAVFTDNYTRLRKQMAAKKYLNSIKNHR [R3P139]
,50 ratio,HSDAVFTDNYTRLRKQMAAKKYLNSITNKR [R3P129]
2 nM,10 ratio,HSDAVFTDNYTRLRKQMAYKKYLNSIKNKR [R3P114]
0.2 nM,500 ratio,HSDAVFTDNYTRLRKQMALKKYLNSIKNKR [R3P104]
300 nM,3 ratio,HSDAVFTDNYTRLRKQMAQKKYLNSIKNKR [R3P108]
,30 ratio,HSDAVFTDNYTRLRKQMAAKKYLNSIENKR [R3P118]
0.5 nM,30 ratio,HSDAVFTDNYTRLRKQMAAKKYLNSIFNKR [R3P119]

R3 EC50,R3 Selectivity,Binder
0.5 nM,200 ratio,HSDAVFTDNYTRLRKQMASKKYLNSIKNKR [R3P110]
,20 ratio,HSDAVFTDNYTRLRKQMAVKKYLNSIKKGGT [R3P9]
,> 200 ratio,HSDAVFTDNYTRLRKQLAAKKYLNDIKKGGT [R3P12]
,3 ratio,HSDAVFTDNYTRLRKQMAVKKYLNDLKKGGT [R3P14]
,12 ratio,HSDAVFTDNYTRLRKQVAVKKYLQSILKKR [R3P88]
0.2 nM,15 ratio,HSDAVFTDNYTRLRKQMAAKKYLNSINNKR [R3P124]
0.02 nM,100 ratio,HSDAVFTDNYTRLRKQVAAKKYLQSILNKR [R3P92]
1 nM,200 ratio,HSDAVFTDNYTRLRKQMAAKKYLNSIQNKR [R3P126]
0.09 nM,100 ratio,HSDAVFTDNYTRLRKQMACKKYLNSIKNKR [R3P94]
0.3 nM,70 ratio,HSDAVFTDNYTRLRKQMAAKKYLNSIWNKR [R3P131]
0.05 nM,8 ratio,HSDAVFTDNYTRLRKQMAKKKYLNSIKNKR [R3P103]
,100 ratio,HSDAVFTDNYTRLRKQMAAKKYLNSIKNLR [R3P141]
0.3 nM,30 ratio,HSDAVFTDNYTRLRKQMAGKKYLNSIKNKR [R3P100]
0.2 nM,50 ratio,HSDAVFTDNYTRLRKQMAAKKYLNSIGNKR [R3P120]
,15 ratio,HSDAVFTDNYTRLRKQVAVKKYLQSILKK [R3P89]
1 nM,40 ratio,HSDAVFTDNYTRLRKQMAFKKYLNSIKNKR [R3P99]
6 nM,50 ratio,HSDAVFTDNYTRLRKQMAAKKYLNSIANKR [R3P115]
1 nM,50 ratio,HSDAVFTDNYTRLRKQMAAKKYLNSIHNKR [R3P121]
,100 ratio,HSDAVFTDNYTRLRKQVAVKKYLQSIKKK [R3P81]
,110 ratio,HSDAVFTDNYTRLRKQVAAKKYLQSIKNK [R3P86]
,70 ratio,HSDAVFTDNYTRLRKQMAAKKYLNSIKNER [R3P136]
0.5 nM,600 ratio,HSDAVFTDNYTRLRKQMAAKKYLNSIRNKR [R3P127]
,30 ratio,HSDAVFTDNYTRLRKQVAAKKYLQSILKK [R3P85]
0.3 nM,200 ratio,HSDAVFTDNYTRLRKQMAAKKYLNSISNKR [R3P128]
0.3 nM,,HSDAVFTDNYTRLRKQMAMKKYLNSIKNKR [R3P105]
0.3 nM,10 ratio,HSDAVFTDNYTRLRKQMAWKKYLNSIKNKR [R3P113]
1 nM,20 ratio,HSDAVFTDNYTRLRKQMAAKKYLNSICNKR [R3P116]

# From patent EP1192182B1, “PITUITARY ADENYLATE CYCLASE ACTIVATING PEPTIDE (PACAP) RECEPTOR 3 (R3) AGONISTS AND THEIR PHARMACOLOGICAL METHODS OF USE” (priority 1999, dated 2001)
